Measurements taken from US20190038796.

Molecular target: EGF-MMP (recombinant epidermal growth factor with N-terminal PLP reactive site AKT, polyhistidine tag and MMP cleavage site VPLSLYSG)
Sequence (chain, as listed by the source): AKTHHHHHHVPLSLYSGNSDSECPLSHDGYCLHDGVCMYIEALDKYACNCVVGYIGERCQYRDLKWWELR

B1: Recombinant, human pro-MMP-9 expressed in CHO cells, activated with amino-phenyl mercuric acetate (APMA) (protein)
chain: APRQRQSTLVLFPGDLRTNLTDRQLAEEYLYRYGYTRVAEMRGESKSLGPALLLLQKQLSLPETGELDSATLKAMRTPRCGVPDLGRFQTFEGDLKWHHHNITYWIQNYSEDLPRAVIDDAFARAFALWSAVTPLTFTRVYSRDADIVIQFGVAEHGDGYPFDGKDGLLAHAFPPGPGIQGDAHFDDDELWSLGKGVVVPTRFGNADGAACHFPFIFEGRSYSACTTDGRSDGLPWCSTTANYDTDDRFGFCPSERLYTQDGNADGKPCQFPFIFQGQSYSACTTDGRSDGYRWCATTANYDRDKLFGFCPTRADSTVMGGNSAGELCVFPFTFLGKEYSTCTSEGRGDGRLWCATTSNFDSDKKWGFCPDQGYSLFLVAAHEFGHALGLDHSSVPEALMYPMYRFTEGPPLHKDDVNGIRHLYGPRPEPEPRPPTTTTPQPTAPPTVCPTGPPTVHPSERPTAGPTGPPSAGPTGPPTAGPSTATTVPLSPVDDACNVNIFDAIAEIGNQLYLFKDGKYWRFSEGRGSRPQGPFLIADKWPALPRKLDSVFEERLSKKLFFFSGRQVWVYTGASVLGPRRLDKLGLGADVAQVTGALRSGRGKMLLFSGRRLWRFDVKAQMVDPRSASEVDRMFPGVPLDTHDVFQYREKAYFCQDRFYWRVSSRSELNQVDQVGYVTYDILQCPED
- conversion to the cleaved product by integration of MALDI-TOF data: over 99% conversion to the cleaved product
- molecular weight by MALDI-TOF after incubation with MMP-9 (cleavage): After 2 hours, the molecular weight decreased from 8.16 kDa to 6.64 kDa, in precise agreement with the theoretical molecular weight of cleaved EGFMMP (6.64 kDa)
